Values of other authors in article PMC12224906.

Target: eIF5B CTD (Homo sapiens) (UniProt O60841)
Chain of UniProt O60841 (O60841 1076-1220): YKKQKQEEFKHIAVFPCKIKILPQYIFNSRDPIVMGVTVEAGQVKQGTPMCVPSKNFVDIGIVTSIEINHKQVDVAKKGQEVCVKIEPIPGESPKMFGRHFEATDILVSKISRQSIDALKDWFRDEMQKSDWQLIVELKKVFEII

In the case of eIF5 CTT (from UniProt P55010), the Kd is given as 500 nM.
